Patent US5985836A, “Alpha-1 proteinase inhibitor binding peptides” (Bayer Corporation, priority 1998, dated 1999)
Ends that are not written are not given here.

Legend:
[1] = molecular target: T1, A1PI (Homo sapiens, UniProt P01009); experiment: A1PI yield from dialyzed (aqueous) Effluent II+III; assay type: binding; conditions: 4° C.; for Mass A1PI per Eluate Fraction, 1M NaCl / Mass A1PI per Eluate Fraction, 2% Acetic Acid / Mass A1PI per Eluate Fraction, Flowthrough: 1 ml dialyzed Eff. II+III (ethanol removed); for Percent Eluted by Fraction, 1M NaCl / Percent Eluted by Fraction, 2% Acetic Acid / Percent Eluted by Fraction, Flowthrough: A1PI, 1 ml dialyzed Eff. II+III
T1 construct: Human plasma is currently the only approved source of therapeutic AlPI
T1 sequence (P01009 25-418): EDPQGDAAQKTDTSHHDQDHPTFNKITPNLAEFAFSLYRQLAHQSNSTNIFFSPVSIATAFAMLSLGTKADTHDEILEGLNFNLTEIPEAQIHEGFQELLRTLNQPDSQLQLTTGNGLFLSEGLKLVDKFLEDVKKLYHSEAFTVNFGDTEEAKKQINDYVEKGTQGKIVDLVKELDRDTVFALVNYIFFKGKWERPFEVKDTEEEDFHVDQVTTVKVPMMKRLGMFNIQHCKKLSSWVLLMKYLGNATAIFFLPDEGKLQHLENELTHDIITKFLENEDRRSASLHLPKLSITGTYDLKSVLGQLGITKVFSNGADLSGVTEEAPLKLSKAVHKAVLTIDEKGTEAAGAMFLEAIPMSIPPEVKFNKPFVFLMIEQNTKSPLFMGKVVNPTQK
Method: Effluent II+III was dialyzed against equilibration buffer at 4° C. to remove the ethanol using a 15,000 molecular weight cut-off membrane. Nephelometry of the Eff. […] A portion of the identified sequences were assayed under the same conditions applied for neat Eff. II+III at 4° C. […] II+III compared to the neat, ethanol-containing feed. The binding strength differed for the aqueous feed as more AlPI eluted in 1M NaCl for the aqueous feed. The AlPI eluted in the 1M NaCl fractions was not as enriched as that eluted in the acid eluates.

[2] = tested on: Immunoglobulin G (IgG); experiment: Purification from Effluent II+III, IgG mass balance; assay type: binding, human; conditions: 1 ml Eff. II+III, 4° C.
Method: (§1) Sequences 1-11 and 15 were assayed with Effluent II+III (Eff. II+III). Eff. II+III is a process intermediate in the Cohn plasma fractionation process. The feed stream contains 20% (by volume) ethanol, 20-25 mg/ml hSA and approximately 1 mg/ml AlPI. The stream also contains other proteins including anti-thrombin III (AT3), immunoglobin G (IgG), immunoglobin A (IgA), apolipoprotein alpha-1 (Apo A-1), transferrin (Trf), haptoglobin (Hpt), and alpha-1 acid glycoprotein (AAG) at concentrations ranging from 0.1-1 mg/ml.
(§2) The columns were assayed using the same technique as the hSA+AlPI experiments, allowing for a 10 minute residence time followed by a constant flow rate of 865 μl/min with step elutions of 1M NaCl, 3M NaCl, and 2% acetic acid. All experiments were conducted at 4° C. The mass balances for the injection of 1 ml Eff. […] The AlPI was enriched from 3% of the total protein in the feed to upwards of 50% in the acid eluate.

[3] = molecular target: T1, A1PI; experiment: A1PI purification from 5 mg hSA + 1 mg A1PI on peptide column, A1PI mass balance; assay type: binding; conditions: A1PI, 5 mg hSA + 1 mg A1PI; for Percent Eluted by Fraction, 1M NaCl / Percent Eluted by Fraction, 2% Ac. Acid / Percent Eluted by Fraction, 3M NaCl / Percent Eluted by Fraction, Flow: relative to total eluted
Outline: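 Peptides on A-Totda-Toyopearl resin (0.1 mmole/g) in 0.4×5 cm columns; 5 mg hSA + 1 mg A1PI loaded at 4 °C or 20 °C with 10 min residence (17 μl/min). Steps of 1M and 3M NaCl, then 2% acetic acid; fractions quantified by immunonephelometry for mass balance.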

[4] = molecular target: T1, A1PI; experiment: Purification of A1PI from Effluent II+III on peptide column, A1PI mass balance; assay type: binding; conditions: A1PI, 1 ml Eff. II+III, 4° C.
Outline: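 Run at 4° C: Effluent II+III (1 ml, 20% ethanol) loaded with a 10 min residence. Elution at 865 μl/min, in sequence 1M NaCl, 3M NaCl, 2% acetic acid; A1PI, IgA, IgG and haptoglobin accounted for in each fraction.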

[5] = molecular target: T1, A1PI; experiment: A1PI binding on peptide-resin column, injection of 1 mg A1PI in equilibration buffer; conditions: 1 mg A1PI in equilibration buffer; for Percent A1PI Eluted by Fraction Based on Absorbance at 280 nm, 1M NaCl / Percent A1PI Eluted by Fraction Based on Absorbance at 280 nm, 2% Acetic Acid / Percent A1PI Eluted by Fraction Based on Absorbance at 280 nm, Flowthrough: 4° C.; for Percent A1PI Eluted by Fraction, 1M NaCl / Percent A1PI Eluted by Fraction, 2% Acetic Acid / Percent A1PI Eluted by Fraction, Flowthrough: 20° C.
Outline: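 Peptides synthesized on A-Totda-Toyopearl chelate resin (0.1 mmole/g) packed in 0.4×5 cm columns; 1 mg A1PI injected in equilibration buffer at 4 °C or 20 °C, 865 or 523 μl/min. Flowthrough, 1M/3M NaCl washes and 2% acetic acid eluate quantified by A280 or immunonephelometry as percent of total eluted.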

[6] = molecular target: T2, apolipoprotein alpha-1 (Apo A-1) (Homo sapiens, UniProt P02647); experiment: Purification from Effluent II+III, Apo A-1 mass balance; assay type: binding; conditions: 1 ml Eff. II+III, 4° C.; for Mass Protein per Eluate Fraction, 2% Acetic Acid: * as in Tables 4, 5 (below detection limit)
T2 construct: Eff; II+III is a process intermediate in the Cohn plasma fractionation process; tissue Bayer Corporation (Clayton, N.C.); host or cells: plasma fraction: Cohn Effluent II+III
T2 sequence (P02647 19-267): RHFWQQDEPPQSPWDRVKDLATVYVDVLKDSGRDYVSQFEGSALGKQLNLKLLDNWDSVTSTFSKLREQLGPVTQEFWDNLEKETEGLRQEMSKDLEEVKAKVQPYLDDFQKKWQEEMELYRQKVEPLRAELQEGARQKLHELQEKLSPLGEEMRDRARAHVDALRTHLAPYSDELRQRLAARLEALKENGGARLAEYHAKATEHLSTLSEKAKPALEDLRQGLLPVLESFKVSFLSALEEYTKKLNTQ
Method: as §1, §2

[7] = tested on: Immunoglobulin A (IgA); experiment: Purification from Effluent II+III, IgA mass balance; assay type: binding, human; conditions: 1 ml Eff. II+III, 4° C.; for Mass Protein per Eluate Fraction, 1M NaCl / Mass Protein per Eluate Fraction, 2% Acetic Acid / Mass Protein per Eluate Fraction, Flow: * as in Tables 4, 5 (below detection limit)
Method: as §1, §2

[8] = * as in Tables 4, 5 (below detection limit)
[9] = 20° C., * Below detection limit

Q: Which results are given for ARWYIH?
A: Mass A1PI per Eluate Fraction, 1M NaCl [1]: 0.18 mg; Mass A1PI per Eluate Fraction, 2% Acetic Acid [1]: 0.20 mg; Mass A1PI per Eluate Fraction, Flowthrough [1]: 0.24 mg; Percent Eluted by Fraction, 1M NaCl [1]: 30%; Percent Eluted by Fraction, 2% Acetic Acid [1]: 32%; Percent Eluted by Fraction, Flowthrough [1]: 39%; Percent Eluted by Fraction, 1M NaCl [2]: 0%; Percent Eluted by Fraction, 2% Acetic Acid [2]: 7%; Percent Eluted by Fraction, 3M NaCl [2]: 0%; Percent Eluted by Fraction, Flow [2]: 93%; Mass Protein per Eluate Fraction, 2% Acetic Acid [2, 8]: 0.02 mg; Mass Protein per Eluate Fraction, Flow [2, 8]: 0.23 mg; Mass Protein per Eluate Fraction, 1M NaCl ([3]; 4° C., * Below detection limit): 0.33 mg; Mass Protein per Eluate Fraction, 2% Ac. Acid ([3]; 4° C., * Below detection limit): 0.41 mg; Mass Protein per Eluate Fraction, 3M NaCl ([3]; 4° C., * Below detection limit): 0.04 mg; Percent Eluted by Fraction, 1M NaCl ([3]; 4° C.): 43%; Percent Eluted by Fraction, 2% Ac. Acid ([3]; 4° C.): 53%; Percent Eluted by Fraction, 3M NaCl ([3]; 4° C.): 5%; Percent Eluted by Fraction, Flow ([3]; 4° C.): 0%; Mass Protein per Eluate Fraction, 1M NaCl [3, 9]: 0.16 mg; Mass Protein per Eluate Fraction, 2% Ac. Acid [3, 9]: 0.15 mg; Mass Protein per Eluate Fraction, Flow [3, 9]: 0.67 mg; Percent Eluted by Fraction, 1M NaCl ([3]; 20° C.): 16%; Percent Eluted by Fraction, 2% Ac. Acid ([3]; 20° C.): 15%; Percent Eluted by Fraction, 3M NaCl ([3]; 20° C.): 0%; Percent Eluted by Fraction, Flow ([3]; 20° C.): 69%; Percent Eluted by Fraction, 1M NaCl [4]: 7%; Percent Eluted by Fraction, 2% Acetic Acid [4]: 75%; Percent Eluted by Fraction, 3M NaCl [4]: 0%; Percent Eluted by Fraction, Flow [4]: 18%; Mass Protein per Eluate Fraction, 1M NaCl [4, 8]: 0.08 mg; Mass Protein per Eluate Fraction, 2% Acetic Acid [4, 8]: 0.81 mg; Mass Protein per Eluate Fraction, Flow [4, 8]: 0.20 mg; Percent A1PI Eluted by Fraction Based on Absorbance at 280 nm, 1M NaCl [5]: 55%; Percent A1PI Eluted by Fraction Based on Absorbance at 280 nm, 2% Acetic Acid [5]: 45%; Percent A1PI Eluted by Fraction Based on Absorbance at 280 nm, Flowthrough [5]: 0%; Percent A1PI Eluted by Fraction, 1M NaCl [5]: 84%; Percent A1PI Eluted by Fraction, 2% Acetic Acid [5]: 16%; Percent A1PI Eluted by Fraction, Flowthrough [5]: 0%; Percent Eluted by Fraction, 1M NaCl [6]: 0%; Percent Eluted by Fraction, 2% Acetic Acid [6]: 100%; Percent Eluted by Fraction, 3M NaCl [6]: 0%; Percent Eluted by Fraction, Flow [6]: 0%; Mass Protein per Eluate Fraction, 2% Acetic Acid [6]: 0.29 mg; Percent Eluted by Fraction, 1M NaCl [7]: 18%; Percent Eluted by Fraction, 2% Acetic Acid [7]: 56%; Percent Eluted by Fraction, 3M NaCl [7]: 0%; Percent Eluted by Fraction, Flow [7]: 25%; Mass Protein per Eluate Fraction, 1M NaCl [7]: 0.07 mg; Mass Protein per Eluate Fraction, 2% Acetic Acid [7]: 0.21 mg; Mass Protein per Eluate Fraction, Flow [7]: 0.09 mg

Q: Which results are given for IIWLYK?
A: Mass A1PI per Eluate Fraction, 1M NaCl [1]: 0.05 mg; Mass A1PI per Eluate Fraction, 2% Acetic Acid [1]: 0.38 mg; Mass A1PI per Eluate Fraction, Flowthrough [1]: 0.19 mg; Percent Eluted by Fraction, 1M NaCl [1]: 9%; Percent Eluted by Fraction, 2% Acetic Acid [1]: 60%; Percent Eluted by Fraction, Flowthrough [1]: 31%; Percent Eluted by Fraction, 1M NaCl [2]: 9%; Percent Eluted by Fraction, 2% Acetic Acid [2]: 0%; Percent Eluted by Fraction, 3M NaCl [2]: 0%; Percent Eluted by Fraction, Flow [2]: 91%; Mass Protein per Eluate Fraction, 1M NaCl [2, 8]: 0.02 mg; Mass Protein per Eluate Fraction, Flow [2, 8]: 0.23 mg; Mass Protein per Eluate Fraction, 1M NaCl ([3]; 4° C., * Below detection limit): 0.10 mg; Mass Protein per Eluate Fraction, 2% Ac. Acid ([3]; 4° C., * Below detection limit): 0.18 mg; Mass Protein per Eluate Fraction, Flow ([3]; 4° C., * Below detection limit): 0.52 mg; Percent Eluted by Fraction, 1M NaCl ([3]; 4° C.): 13%; Percent Eluted by Fraction, 2% Ac. Acid ([3]; 4° C.): 23%; Percent Eluted by Fraction, 3M NaCl ([3]; 4° C.): 0%; Percent Eluted by Fraction, Flow ([3]; 4° C.): 65%; Mass Protein per Eluate Fraction, 1M NaCl [3, 9]: 0.07 mg; Mass Protein per Eluate Fraction, 2% Ac. Acid [3, 9]: 0.47 mg; Mass Protein per Eluate Fraction, Flow [3, 9]: 0.26 mg; Percent Eluted by Fraction, 1M NaCl ([3]; 20° C.): 9%; Percent Eluted by Fraction, 2% Ac. Acid ([3]; 20° C.): 58%; Percent Eluted by Fraction, 3M NaCl ([3]; 20° C.): 0%; Percent Eluted by Fraction, Flow ([3]; 20° C.): 33%; Percent Eluted by Fraction, 1M NaCl [4]: 0%; Percent Eluted by Fraction, 2% Acetic Acid [4]: 79%; Percent Eluted by Fraction, 3M NaCl [4]: 0%; Percent Eluted by Fraction, Flow [4]: 21%; Mass Protein per Eluate Fraction, 2% Acetic Acid [4, 8]: 0.50 mg; Mass Protein per Eluate Fraction, Flow [4, 8]: 0.13 mg; Percent A1PI Eluted by Fraction Based on Absorbance at 280 nm, 1M NaCl [5]: 52%; Percent A1PI Eluted by Fraction Based on Absorbance at 280 nm, 2% Acetic Acid [5]: 48%; Percent A1PI Eluted by Fraction Based on Absorbance at 280 nm, Flowthrough [5]: 0%; Percent A1PI Eluted by Fraction, 1M NaCl [5]: 17%; Percent A1PI Eluted by Fraction, 2% Acetic Acid [5]: 55%; Percent A1PI Eluted by Fraction, Flowthrough [5]: 28%; Percent Eluted by Fraction, 1M NaCl [6]: 0%; Percent Eluted by Fraction, 2% Acetic Acid [6]: 100%; Percent Eluted by Fraction, 3M NaCl [6]: 0%; Percent Eluted by Fraction, Flow [6]: 0%; Mass Protein per Eluate Fraction, 2% Acetic Acid [6]: 0.43 mg; Percent Eluted by Fraction, 1M NaCl [7]: 34%; Percent Eluted by Fraction, 2% Acetic Acid [7]: 49%; Percent Eluted by Fraction, 3M NaCl [7]: 0%; Percent Eluted by Fraction, Flow [7]: 17%; Mass Protein per Eluate Fraction, 1M NaCl [7]: 0.12 mg; Mass Protein per Eluate Fraction, 2% Acetic Acid [7]: 0.17 mg; Mass Protein per Eluate Fraction, Flow [7]: 0.06 mg
